Source: article PMC10999750, “Structural basis for nuclear import of bat adeno-associated virus capsid protein” (The Journal of General Virology, 2024)
Where no end group is shown, it is not given here. The star is where a group is joined. FITC = O=C1OC2(c3ccc(O)cc3Oc3cc(O)ccc32)c2ccc(NC(=S)*)cc21; Ahx = NCCCCCC(=O)O

B1: AAV 09YN Cap-BR (N-terminal domain fragment of AAV 09YN VP1 encompassing basic regions 1-3, residues 112-169) (domain or fragment)
chain: ANALFQAKKRVLEPFGLVEGEPEPKKTPSVKRPHASPDSSSGVGKKGDQPARKRLDFG
notes: not shown: GST, N-terminal, cleaved
B2: Synthetic FITC labelled AAV 09YN Cap-BR peptide (residues 117-167) (peptide)
peptide: {FITC-Ahx}-QAKKRVLEPFGLVEGEPEPKKTPSVKRPHASPDSSSGVGKKGDQPARKRLD
notes: also called FITC-tagged AAV 09YN Cap-BR peptide; non-mutated 09YN Cap-BR; source: synthetic peptide (GenScript)

Tests used:
[1] = target: T1, Mouse importin α2 lacking the IBB domain (mImpα2DIBB) (mouse, UniProt P52293 70-529); test: crystal structure; co-purified complex of AAV 09YN Cap-BR and IMPα2; hanging drop, 0.75 M Na citrate, 0.1 M HEPES pH 7.5, 22 °C; 2.4 Å; conditions: both partners purified
[2] = target: T1, Mouse importin α2 lacking the IBB …; test: fluorescence polarisation; FITC-tagged peptide ('2 nm' [sic]) with importin two-fold serially diluted from 4.5 µM across 23 wells, 200 µl, GST Buffer A (50 mM Tris, 125 mM NaCl); three independent experiments; conditions: both partners purified

| Binder | binding result [1] | Kd [2] [µM] |
| --- | --- | --- |
| B1 | binds | – |
| B2 | – | 0.656 |
